Measured values published in PMC5737387 (Nucleic Acids Research, 2017).

B1: full length p34hs (natural protein)
chain: MVSDEDELNLLVIVVDANPIWWGKQALKESQFTLSKCIDAVMVLGNSHLFMNRSNKLAVIASHIQESRFLYPGKNGRLGDFFGDPGNPPEFNPSGSKDGKYELLTSANEVIVEEIKDLMTKSDIKGQHTETLLAGSLAKALCYIHRMNKEVKDNQEMKSRILVIKAAEDSALQYMNFMNVIFAAQKQNILIDACVLDSDSGLLQQACDITGGLYLKVPQMPSLLQYLLWVFLPDQDQRSQLILPPPVHVDYRAACFCHRNLIEIGYVCSVCLSIFCNFSPICTTCETAFKISLPPVLKAKKKKLKVSA

How the values were obtained:
[1] = target: p44ct(368–534) (Chaetomium thermophilum); experiment: ITC
[2] = target: full length p44hs (Homo sapiens, UniProt Q13888 1-395); experiment: co-IP
full length p44hs, sequence (Q13888 whole entry): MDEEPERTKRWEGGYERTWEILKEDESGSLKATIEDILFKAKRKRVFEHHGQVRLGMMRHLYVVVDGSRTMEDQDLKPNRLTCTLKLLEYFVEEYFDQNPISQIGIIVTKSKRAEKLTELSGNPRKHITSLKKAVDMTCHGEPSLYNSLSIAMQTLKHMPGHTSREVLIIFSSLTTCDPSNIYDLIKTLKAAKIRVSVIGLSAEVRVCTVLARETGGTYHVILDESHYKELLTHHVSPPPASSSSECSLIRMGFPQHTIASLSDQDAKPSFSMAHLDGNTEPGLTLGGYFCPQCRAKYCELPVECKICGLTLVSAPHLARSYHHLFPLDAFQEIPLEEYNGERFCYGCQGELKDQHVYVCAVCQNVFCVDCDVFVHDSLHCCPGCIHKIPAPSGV

Molecule	Kd [1] [nM]	dH [1] [kcal/mol]	stoichiometry N [1]	binding result [2]
p34ct(1–277) (domain or fragment)	11	-25	0.71	–
B1	–	–	–	binds
